Test results published in patent publication US20220193133A1.

Molecular target: D04-his tagged VHH (humanized D04)
Assay: Octet (BLI), anti-idiotype VHH-Fc vs his-tagged VHH; table title prints B11-his, paragraph 353 ties these values to D04

- Response: 0.0062
- koff: < 1e-07 s⁻¹
- kon: 2160 M⁻¹ s⁻¹
B1: AMD71 (huB11_CNTY3+4_A02 anti-idiotype VHH IgG1-Fc fusion) (Fc fusion, not shown: a dimerising Fc or GST)
chain: EVQLLESGGGLVQPGGSLRLSCAASGRTYTGSAMGWYRQAPGKERELVSAISTGGETYYADSVKGRFTISRDNSKNTLYLQMNSLRAEDTAVYYCAAGYVGLPYTYRPATSRRGYTYWGQGTQVTVSS
